The values that follow come from PMC4896055 (The Journal of Cell Biology, 2016).

To fix the notation:
B1: Recombinant Mdm36, His6-T7-Mdm36 (natural protein)
chain: MDENGTVKPGYELKGLNSGNSRSNMDKDPIVSKFHRAGLNDSADEEDTDINGNRNTSWITSMISEEKRKVEGKSMLNDEEDLHLSKATLNKCDALVKILADIIKLEFVIHQSWYIRSLHKSVLIQFEVETSGGNKNSAGDSGDDDDDNHNGNLDDSFYKDLSLKCIKKCEKSSLALESLSRDIDQIRDFIMSNTIEDNRVDRLLQNSMTLLLECWIYSMKRLRRLRMKIAGIFVRSKLLLIDHELVTIWHFLQEQNEHETVNNENELKLAETIKSYRAFIKIFIQQLEDSESGSPSSSLFEECLHVFLDIESMYNSLNLNWLLNENKALQERLLSPSSTSENDHTNNLPVIDETKEIEDISSFVNSIVDASMLTHDLTPINSSDSDNLSNGEIDRLDGRRLSSSTSDMSLMMQRTSLQKQLPSLLTAFNNARRLEQELQNACKVNDNKHSTKDTDSNIRRNEHAMSSSVSSIISQNSTLASPSPPMSSSFISTAPSQSSSRMSTLPLSPSSSLLESQSQTLKNNMSQWLNQSRSGLNGTKLIPTNHIGFHSNVLNTLYGIGGGPVSKSYKSNQPSSQNT

The data set “SEC-MALS” deals with the molecule itself. Nature of the data set: SEC-MALS. Background: In gel filtration, larger molecules generally elute earlier.
The target of data set [1] is B1. Nature of the data set: co-sedimentation.

In general, stoichiometry N refers to a count of units in the complex or per binding partner. Turning to B1, the “stoichiometry N” value in the data set “SEC-MALS” was 2.

B2: Recombinant Num1CC (amino acids 97-294), His6-T7-Num1CC (domain or fragment)
chain: MNFTLELSENLLVECRKLQSSNEAKNEQIKSLKQIKESLSDKIEELTNQKKSFMKELDSTKDLNWDLESKLTNLSMECRQLKELKKKTEKSWNDEKESLKLLKTDLEILTLTKNGMENDLSSQKLHYDKEISELKERILDLNNENDRLLISVSDLTSEINSLQSNRTERIKIQKQLDDAKASISSLKRKVQKKYYQKQ
On to B2, for which, in “SEC-MALS”, the “stoichiometry N” value was found to be 2. Also, in data set [1], the binding result is reported as “binds”.

B3: Recombinant Num1CC^3E (K121E + R262E + R265E), His6-T7-Num1CC^3E (domain or fragment)
chain: MNFTLELSENLLVECRKLQSSNEAENEQIKSLKQIKESLSDKIEELTNQKKSFMKELDSTKDLNWDLESKLTNLSMECRQLKELKKKTEKSWNDEKESLKLLKTDLEILTLTKNGMENDLSSQKLHYDKEISELKERILDLNNENDRLLISVSDLTSEINSLQSNETEEIKIQKQLDDAKASISSLKRKVQKKYYQKQ
Take B3: the binding result in data set [1] was “binds”.
